Reference: article PMC2752207 (Biomaterials, 2009)
Bridge positions count the residues as written; N and C are the ends. Ends that are not written are not given here. * marks the point of attachment. Acryloyl = C=CC(=O)*

How the values were obtained:
[1] = molecular target: AlexaFluor555-labeled TNFα (human, UniProt P01375 77-233, AlexaFluor 555 label (protein labeling kit; sites not stated)); assay: FRET or BRET
recombinant human TNF-α = recombinant human TNF-α (human, UniProt P01375 77-233); assay: uptake of the cytokine into peptide-functionalised hydrogels
Chain of recombinant human TNF-α (P01375 77-233): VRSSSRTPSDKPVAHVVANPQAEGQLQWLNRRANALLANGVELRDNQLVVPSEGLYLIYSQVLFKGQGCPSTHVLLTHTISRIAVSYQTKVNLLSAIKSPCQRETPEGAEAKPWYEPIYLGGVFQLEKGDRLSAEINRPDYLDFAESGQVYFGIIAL

Chain of AlexaFluor555-labeled TNFα (P01375 77-233): as above

B1: acryl-(FITC)WP9QY (peptide)
peptide: KYCWSQYLCY
modifications: N-terminus acrylated (acrylic acid); FITC conjugated to the additional lysine; intramolecular disulfide bond
**Q.** Does B1 bind [1]?
**A.** Result: binds

**Q.** Does Acryloyl-YCWSQYLCY (disulfide 2-8 (inferred)) [acryl-WP9QY] bind (recombinant human TNF-α)?
**A.** Result: binds
